Series [1] is described as follows: In vitro short term release of insulin from 3.4KL5, SEC-HPLC (Example 6). The format is physicochemical. The following applies: Zn-Insulin 47% loading in 3.4KL5. As to the method: Device Preparation: A degradable macromer (3.4KL5) was used. […] The protein was loaded at a loading of 47%, based on dry weight. Three samples were prepared.
The samples were prepared as described in Example 4. The samples were analyzed by SEC-HPLC for the detection of monomers, dimers and soluble aggregates, using the conditions described in Example 5.

A short description of series [2]: In vitro release of insulin from 3.4KL5 particles, size exclusion chromatography (Example 15). The format is physicochemical. As to the method: No vinyl pyrrolidone, or other polymerizable monovinyl monomer was added. The resulting mixture was mixed and placed into 10 mL glass tubes. The tubes were exposed to xenon light (ILC Technology, Inc. Xenon Light Source with Fiber Optics) for 10 seconds. The semi-cured hydrogel was pushed out of the glass tube and further polymerized for 3.5 minutes. The cured hydrogel rods were placed in 15 mL of heptane and ground using a homogenizer (Silverson L4RT-A) for 30 seconds @5000 rpm, followed by 30 seconds @3000 rpm. The heptane was decanted, and the powder was dried under nitrogen.
Particles (16 mg) were placed in a porous (0.8 mm) “release-bag” (described in Example 5). The in vitro release was calculated by averaging the release from 2 release bags. The release-bag was placed into 2 mL of PBS (pH 7.4) at 39° C. The release media was exchanged every 15 minutes for the first 2 hours and every 30 minutes thereafter. Analysis was done by size exclusion chromatography. (HPLC: model 2690 by waters, Column: SEC 250 by BioRad, mobile phase: 0.8M TFA in 60% acetonitrile @1.5 mL/min, detector wavelength: 220 nm).
In general terms: In gel filtration, larger molecules generally elute earlier.

The next series relates to male Sprague-Dawley rats. Kind of series: Fraction of reticulocytes in rats given EPO (Example 11). The format is in vivo, rat. The following applies: day 5, Acridine Orange, flow cytometry. As to the method:
The controlled delivery of active human erythropoeitin (EPO) was confirmed in male Sprague-Dawley rats purchased from Taconic Labs (Germantown, N.Y.). Hydrogel devices were manufactured to contain 3000 Units per device, as described in Example 14. These devices were prepared in the absence of vinyl pyrrolidone, and other polymerizable monovinyl monomers. One of these devices was implanted in each of 3 rats. Three other rats received a subcutaneous injection of EPO (1000 Units) daily for 3 days. A control group of 3 rats received no treatment.
On day 5 after implantation of the device or the start of the subcutaneous injections, venous blood samples were obtained from each rat and stored in EDTA. The fraction of reticulocytes (immature red blood cells) was determined after staining with Acridine Orange by automated flow cytometry.
In general terms: A flow cytometer gives signals particle by particle.

Series [3] in a line: In vitro release of EPO from 3.4KL5 discs, size exclusion chromatography (Example 14). The series is classed as physicochemical. The method, then:
To a sterile 20 mL vial were added: 0.0330 g of TEOA (neat), 1.0076 g of 3.4KL5, 0.0598 g of 1000 ppm eosin (in PBS, pH 7.0), and 2.32 g solution of EPO (10,000 units/mL). No vinyl pyrrolidone, or other polymerizable monovinyl monomer was added. The resulting mixture was mixed and polymerized by light (ILC Technology, Inc. Xenon Light Source with Fiber Optics).
The rate of in vitro release was conducted by averaging the release from 3 discs containing an average of 2500 units per disc. The release was conducted in 4 mL of PBS (pH 7.4) at 39° C. The release media was exchanged daily. Analysis was done by size exclusion chromatography. (HPLC: model 2690 by waters, Column: SEC 250 by BioRad, mobile phase: 0.8M TFA in 60% acetonitrile @1.5 mL/min, detector wavelength: 220 nm).

Series [4] has as its system hypophysectomized rats. Briefly: Growth of hypophysectomized rats given hGH (Example 13). The series is classed as in vivo, rat. The settings on record: hypophysectomized female rats; initial results. The text has this: The controlled delivery of active human growth hormone (hGH, MW 20 Kd) was confirmed in the hypophysectomized rat model. Hypophysectomized female rats purchased from Taconic Labs (Germantown, N.Y.) were weighed each morning. Prior to the initiation of the study the rats were held 7 days to confirm lack of growth. The rats were divided into 3 groups of equal mean weights. Group 1 remained untreated and served as a negative control. Group 2 received an implant of hGH in a hydrogel made of a 3:1 blend of 3.4KL5 and 3.4KC6 (each device contained approximately 1 mg of hGH). The rats in Group 3 were injected with 100 μg hGH subcutaneously each day for the duration of the study.

Series [5] is described as follows: In vitro release of bST from 3.4KL5/PEG-diacrylate blend discs, SEC-HPLC (Example 5). The format is physicochemical. The method, then:
Device Preparation: A blend of a degradable macromer (3.4KL5) and a non-degradable macromer (PEG-diacrylate, MW 3,400) was used. The protein used was ZnbST (Monsanto/Protiva). The protein was loaded at a loading of 20%, based on dry weight. 3 samples were prepared, as follows.
Sample preparation: 20 μL of the bST-precursor solution were prepared, as described in Example 1. The mixture was pipetted using a positive displacement pipette with a silanized glass tip. The solution was placed onto a silanized glass slide. Using pieces of plastic sheets with thicknesses of about 0.4±0.2 mm as spacers, another silanized glass slide was placed on top and held firmly in place using binder clips. A light source (ILC Technology, Inc. Xenon Light Source with Fiber Optics) was adjusted to about a 5-cm distance from the glass slide using clamps and a stand. The center of the disc was illuminated; both sides of the disc were illuminated, for two minutes each.
The clips, the glass slide, and the spacers were carefully removed. With a spatula and tweezers, the discs were removed and weighed on a clean, tared silanized glass slide. The disc was placed into a heat-sealed membrane bag, as described in more detail below. One 20 μL disc was placed in each bag. The bag was heat-sealed, placed in 2.0 mL of phosphate buffer release media (0.01% NaN3, 0.05M PBS, pH 7.4), placed on an orbital shaker turning at 100 rpm, and incubated at 39° C.
For each time point, the bag was placed into fresh 2.0 mL of PBS Release Media. Samples were collected for analysis every day for as long as the bST was being released.
Membrane bags were prepared as follows. Membrane sheets were cut into pieces of approximately 7×2.5 cm. The sheets were folded in half. Using a Bunsen burner or a propane torch, a spatula was heated until it became red. The edges of the sheets were aligned, and the side of the membrane was cut with the […] to seal the sides. […]
The samples were analyzed daily by SEC-HPLC. Monomers, dimers, and soluble aggregates could be detected using this method. […]

Series [6] relates to hypophysectomized rats. Briefly: Growth of hypophysectomized rats given bST (Example 9). The series is classed as in vivo, rat. The settings on record: hypophysectomized female rats, 118±1.5 grams on day 1; mean±sem. The text has this: The controlled delivery of active bovine somatotropin (MW 20 Kd) was confirmed in the hypophysectomized rat model. Hypophysectomized female rats were purchased from Taconic Labs (Germantown, N.Y.). The rats were weighed each morning. Prior to the initiation of the study, the rats were held 7 days to confirm lack of growth. On day 1 of the study the rats weighed 118±1.5 grams (mean±sem, n=18). The rats were divided into 3 groups of equal mean weights. Group 1 remained untreated and served as a negative control. Group 2 received an implant of bST in a hydrogel made of a blend of 3:1 of 3.4KL5 and PEGDA (each device contained 0.9 to 1.1 mg of bST). The rats in Group 3 were injected with 100 μg bST subcutaneously each day for the duration of the study.

Series [7] in a line: Release of bST from cylindrical hydrogel devices of large and small diameter, HPLC (Example 10). The format is physicochemical. As to the method:
A macromer mixture containing approximately 30% (w/w) of bST was prepared using the methods described above. The macromer/protein mixture was put in a glass cylinder having an internal diameter of either 1.12 mm or 0.61 mm. The system was exposed to light for 20 seconds, removed from the glass cylinder, placed on aluminum foil, and exposed to light for an additional 3.5 minutes. The resulting hydrogel cylinders were placed in 1 mL of release media (PBS, pH 7.4), and the released bST was monitored by HPLC. […] In addition, the characteristics of the bST release indicated degradation/swelling of a controlled system. […] For n=0.5, the drug release follows a Fickian-diffusion mechanism. For n>0.5, non-Fickian behavior was observed.
In a different analysis based only on diffusion, the flux from the cylinder was analyzed using the following Fickian equation: J=D*A*ΔC/ΔX, where J is the flux; D is the diffusion constant; A is the surface area; C is the concentration in the cylinder; and […] from the center. In this analysis the flux should differ dramatically whether the release occurred from either a large or a small diameter cylinder. Theoretical analysis predicted that under Fickian diffusion, when the smaller diameter cylinder released 20%, the larger diameter cylinder would release 7% of the incorporated drug. […]

Series [8] can be described thus: In vitro release of ZnbST from 50:50 blend of 3.4KL5 and 3.4KC6, SEC-HPLC (Example 7). The format is physicochemical. The settings on record: 25% loading in 50:50 blend of 3.4KL5 and 3.4KC6. As to the method: Devices were prepared as describe above. Macromers containing a blend of a soluble macromer (3.4KL5) and an insoluble macromer (3.4KC6) were used in a ratio of 50:50. The protein used was ZnbST (Protiva/Monsanto); it was loaded at a loading of 25%, based on dry weight. Six samples were prepared. The samples were analyzed by SEC-HPLC, as described above. The samples were monitored for the presence of monomers, dimers and soluble aggregates.

A short description of series [9]: In vitro release of ZnbST from 75:25 blend of 3.4KL5 and 3.4KC6, SEC-HPLC (Example 8). The series is classed as physicochemical. As to the method: Devices were prepared as describe above. A blend of a soluble macromer (3.4KL5) and an insoluble macromer (3.4KC6) were used, in a ratio of 75:25. The protein ZnbST (Protiva/Monsanto) was loaded at a loading of 25%, based on dry weight. Six samples were prepared. The samples were analyzed by SEC-HPLC to detect monomers, dimers, and soluble aggregates, as described above.

The record followed here is patent US6703037B1, “Biodegradable macromers for the controlled release of biologically active substances” (Pelias Technologies, Inc., priority 1997, dated 2004).

For “Insulin: Zn-Insulin / insulin purchased from Sigma, loaded into 3.4KL5”, the “dimers or soluble aggregates” value in [1] (SEC-HPLC) is “no dimers or soluble aggregates were detected”. The “release achieved (complete release)” value in [1] (within 24 hours) is 100%. The “period over which insulin was released” value in [2] (3.4KL5 particles (16 mg) in release-bag, PBS pH 7.4, 39° C.) worked out at 90 min. Besides, the “insulin still being released” value in series [2] (after 90 minutes, 3.4KL5 particles) worked out at 100 µg.
Regarding EPO: human erythropoeitin, in the series on male Sprague-Dawley rats, the reticulocytes entry is listed as “about 19%”. Further, the “EPO still being released” value in series [3] (after 120 hours) is recorded as “over 500 units”. Also, the “period over which EPO was released” value in series [3] (average 2500 units per disc, PBS pH 7.4, 39° C.) is “at least 120 hours”.
As to hGH: human growth hormone (MW 20 Kd), the “growth of the rats” value in the series on hypophysectomized rats [4] was “exhibited continued growth”.

B1: bovine somatotropin (protein, UniProt P01246 27-217, looked up)
Somatotropin: AFPAMSLSGLFANAVLRAQHLHQLAADTFKEFERTYIPEGQRYSIQNTQVAFCFSETIPAPTGKNEAQQKSDLELLRISLLLIQSWLGPLQFLSRVFTNSLVFGTSDRVYEKLKDLEEGILALMRELEDGTPRAGQILKQTYDKFDTNMRSDDALLKNYGLLSCFRKDLHKTETYLRVMKCRRFGEASCAF
notes: bovine somatotropin (MW 20 Kd)
As for B1, the “initial release on each of the first two days” value in series [5] (ZnbST 20% loading in blend of 3.4KL5 and PEG-diacrylate) was 12%. The “period over which bST was released” value in [5] (ZnbST 20% loading in blend of 3.4KL5 and PEG-diacrylate MW 3,400, PBS pH 7.4, 39° C.) amounted to 14 days. The “dimers or soluble aggregates in the release media” value in series [5] (ZnbST 20% loading in blend of 3.4KL5 and PEG-diacrylate, SEC-HPLC) is listed as “No detectable levels”. Also, in the series on hypophysectomized rats [6], the “body weight after 11 days” value is recorded as 151±4 grams. Further, the “exponent n characteristic of the mode of transport” value in series [7] (both cylinders, n>0.5 = non-Fickian) was 2. The “incorporated drug released by the larger diameter cylinder (observed)” value in series [7] (when the smaller diameter cylinder released 20%) is reported as 16%.

B2: ZnbST: ZnbST protein (Monsanto/Protiva) loaded into macromer hydrogels (protein, UniProt P01246 27-217, looked up)
Somatotropin: AFPAMSLSGLFANAVLRAQHLHQLAADTFKEFERTYIPEGQRYSIQNTQVAFCFSETIPAPTGKNEAQQKSDLELLRISLLLIQSWLGPLQFLSRVFTNSLVFGTSDRVYEKLKDLEEGILALMRELEDGTPRAGQILKQTYDKFDTNMRSDDALLKNYGLLSCFRKDLHKTETYLRVMKCRRFGEASCAF
modifications: zinc complex
notes: ZnbST protein (Monsanto/Protiva) loaded into macromer hydrogels
On to B2, for which, in series [8], the initial burst release result is “no initial burst release was observed” and the “period over which ZnbST was released” value came out at 20 days. In addition, the “concentrations of dimers or soluble aggregates” value in [8] (SEC-HPLC) was “less than 2%”. For the same molecule, in series [9] (25% loading in 75:25 blend of 3.4KL5 and 3.4KC6), the “period over which ZnbST was released” value is on record as 17 days. In addition, the “dimer or aggregate released” value in series [9] (75:25 blend of 3.4KL5 and 3.4KC6, SEC-HPLC) is “Very little”. The “incorporated ZnbST released” value in series [9] (within 13 days of release, 75:25 blend of 3.4KL5 and 3.4KC6) was 90%.
